Source: PMC5018210 (Nature, 2016)

Molecular target: the molecule itself
Experiment: SEC-MALS

B1: MHV S ectodomain trimer (murine hepatitis virus spike glycoprotein ectodomain, R717S, fused to a GCN4 trimerization motif) (domain or fragment)
chain: YIGDFRCIQLVNSNGANVSAPSISTETVEVSQGLGTYYVLDRVYLNATLLLTGYYPVDGSKFRNLALRGTNSVSLSWFQPPYLNQFNDGIFAKVQNLKTSTPSGATAYFPTIVIGSLFGYTSYTVVIEPYNGVIMASVCQYTICQLPYTDCKPNTNGNKLIGFWHTDVKPPICVLKRNFTLNVNADAFYFHFYQHGGTFYAYYADKPSATTFLFSVYIGDILTQYYVLPFICNPTAGSTFAPRYWVTPLVKRQYLFNFNQKGVITSAVDCASSYTSEIKCKTQSMLPSTGVYELSGYTVQPVGVVYRRVANLPACNIEEWLTARSVPSPLNWERKTFQNCNFNLSSLLRYVQAESLFCNNIDASKVYGRCFGSISVDKFAVPRSRQVDLQLGNSGFLQTANYKIDTAATSCQLHYTLPKNNVTINNHNPSSWNRRYGFNDAGVFGKNQHDVVYAQQCFTVRSSYCPCAQPDIVSPCTTQTKPKSAFVNVGDHCEGLGVLEDNCGNADPHKGCICANNSFIGWSHDTCLVNDRCQIFANILLNGINSGTTCSTDLQLPNTEVVTGICVKYDLYGITGQGVFKEVKADYYNSWQTLLYDVNGNLNGFRDLTTNKTYTIRSCYSGRVSAAFHKDAPEPALLYRNINCSYVFSNNISREENPLNYFDSYLGCVVNADNRTDEALPNCDLRMGAGLCVDYSKSRRAHSSVSTGYRLTTFEPYTPMLVNDSVQSVDGLYEMQIPTNFTIGHHEEFIQTRSPKVTIDCAAFVCGDNTACRQQLVEYGSFCVNVNAILNEVNNLLDNMQLQVASALMQGVTISSRLPDGISGPIDDINFSPLLGCIGSTCAEDGNGPSAIRGRSAIEDLLFDKVKLSDVGFVEAYNNCTGGQEVRDLLCVQSFNGIKVLPPVLSESQISGYTTGATAAAMFPPWSAAAGVPFSLSVQYRINGLGVTMNVLSENQKMIASAFNNALGAIQDGFDATNSALGKIQSVVNANAEALNNLLNQLSNRFGAISASLQEILTRLEAVEAKAQIDRLINGRLTALNAYISKQLSDSTLIKVSAAQAIEKVNECVKSQTTRINFCGNGNHILSLVQNAPYGLYFIHFSYVPISFTTANVSPGLCISGDRGLAPKAGYFVQDDGEWKFTGSSYYYPEPITDKNSVIMSSCAVNYTKAPEVFLNTSIPNPPDFKEELDKWFKNQTSIAPDLSLDFEKLNVTLLDLIKRMKQIEDKIEEIESKQKKIENEIARIKKIKLVPRGSLE
stoichiometry N: 3
